The results in this text go back to patent CN114316037A.

Substrate in this assay: O型口蹄疫病毒灭活抗原 (Foot-and-mouth disease virus, serotype O (strain not stated))

B1: 单克隆抗体m19 (O型口蹄疫病毒结构蛋白的单克隆抗体m19) (antibody, V domains shown)
VH: QVQLQQPGSELVRPGASVNLSCKASGYTFPSYWMHWVKQRPGQGLEWIGNIFPDGGFTNYDENFKSRATLTVDTSSSTAYMQLSSLTSEDSAVYYCTTIYDYVVGVGAMDYWGQGTSVTVSS
VL: DIVMTQSPAIMSASPGEKVTITCSASSSISYMYWFQQKTGTSPKLWIYKTSDLASGVPARFSGSGSGTSYSLTISRMEAEDAATYYCQQRNSYTFGGGTKLELK
As for B1, the 最佳使用浓度 (concentration giving OD450 of 1.6) turned out to be 7 µg/mL.
